The source of these data is paper PMC10283433.

For assay [1], the target named is NXT007 in the dKiHv14 format (anti-FIXa/FX bispecific humanized IgG4, kappa/lambda) (human). The assay can be described thus: SPR. For orientation: Surface plasmon resonance follows binding to a sensor surface in real time, without labels.
Assay [2] has as its target anti-FX antibodies with the V1 or V2 mutation pair. Briefly: SPR.

Consider “recombinant human FcRn (from UniProt P55899 24-365) (receptor)”, for which the FcRn binding ability after acid treatment, relative to the initial sample in assay [1] worked out at 80%.
Turning to “human FX (Enzyme Research Laboratories, HFX 1010) (natural protein)”, the fold increase in KD against the parent in assay [2] was 1.3 to 1.4 times.
